The record followed here is the nanobody polyreactivity screen of Harvey et al. (2022).

This data set can be described thus: yeast display, Sf9 membrane polyspecificity reagent, FACS + sequencing; frameworks hold sequencing errors. Put shortly: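 A synthetic nanobody library was expressed on Saccharomyces cerevisiae BJ5465 by galactose induction for 36–48 hours. The library was stained for 1 hour at 4 °C with 10% biotinylated, detergent-solubilized Sf9 membrane reagent and enriched with streptavidin microbeads before FACS. Low and high (top ~1%) gates were set on anti-HA fluorescence for expression and streptavidin fluorescence for reagent binding, and each polyreactivity label reflects the gate of origin.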
“QVQLVESGGGLVQAGGSLRLSCAASGITFWRYAMGWYRQAPGKERELVAAIDWSGGDTYYADSVKGRFTISRDNAKNTVYLQMNRLKPEDTAVYYCATDRYAYKLYDYWGQGTQVTVSS”: the “polyreactivity (PSR sort gate)” value is listed as “low polyreactivity”.
As to “QVQLVESGGGLVQAGGSLRLSCAASGITFWSNAMGWYRQAPGKERELVAAITSSGGSAYYADSVKGRFTISRDNAKNTVYLQMNSLKPEDTAVYYCAAPISRSAGWDSYDYWGQGTQVTVSS”, the “polyreactivity (PSR sort gate)” value is recorded as “low polyreactivity”.
Regarding “QVQLVESGGGLVQAGGSLRLSCAASGITFWVYAMGWYRQSPGKESELVATISRSGGRTYYADSVKGRFTISRDNAKTTVYLQMNSLKPEDTAVYYCAARYRNVLGYDYDFWGQGTQVTVSS”, the “polyreactivity (PSR sort gate)” value was “high polyreactivity”.
For the sequence “QVQLVESGGGLVQAGGSLRLSCAASGITFWYNAMGWYRQAPGKERELVAAISGGGGSTYYADSVKGRFTISRDNAMNTVYLQMNSLKPEDTAVYYCAARQVARVYSGRYGYWGQGTQVTVSS”, the “polyreactivity (PSR sort gate)” value is “high polyreactivity”.
Regarding “QVQLVESGGGLVQAGGSLRLSCAASGITFYDNAMGWYRQAPGKERELVAGISSGGRTYYADSVKGRFTISRDNAKNTVYLQMNSLKPEDTAVYYCNAASLVAYLARLGRDYWGQGTQVTVSS”, the “polyreactivity (PSR sort gate)” value was “low polyreactivity”.
For “QVQLVESGGGLVQAGGSLRLSCAASGITFYDNVMGWYRQAPGKERELVAAITSGGSTNYGDSVKGRFTFSRDNAKNTVYLQMNSLKPEETAVYYCAAQPRVVYEFPYRYGYWGQGTQVTVSS” the value was “low polyreactivity”; for “QVQLVESGGGLVQAGGSLRLSCAASGITFYDYAMGWYRQAPGKERELVAAISGGGITYYADSVKGRFTISRDNAKNTVYLQMNSLKPEDTAVYYCAAERYSPSVGYDYWGQGTQVTVSS”, “low polyreactivity”.
For “QVQLVESGGGLVQAGGSLRLSCAASGITFYDYDMGWYIQAPGKERELVADISYSGGGTYYADSVKGRFTISRDNAKNTVYLQMNSLKPEDTAVYYCAADSQRYYGDYYWGQGTQVTVSS” the value was “high polyreactivity”; for “QVQLVESGGGLVQAGGSLRLSCAASGITFYEYAMGWYRQAHGKERELVAAISQSGGSTYYADSVKGRFTISRDNAKNTVYLQMNSLKPEDTAVYYCAADIKWSIRRAYDYWGQGTQVTVSS”, “high polyreactivity”.
For “QVQLVESGGGLVQAGGSLRLSCAASGITFYEYAMGWYRQAPGKERELVAAITSGGTTNYADSVKGRFTISRDNAKNTVYLQMNSLKPEDTAVYYCAKDEGEGYDYWGQGTQVTVSS” the value was “low polyreactivity”.
Consider “QVQLVESGGGLVQAGGSLRLSCAASGITFYFYAMGWYRQAPGKERELVAAISGSSGSTYYADSVKGRFTISRDNAKNTVYLQMNSLKPEDTAVYYCAAYNRWSGGFEYWGQGTQVTVSS”, for which the “polyreactivity (PSR sort gate)” value was “high polyreactivity”.
For “QVQLVESGGGLVQAGGSLRLSCAASGITFYFYTMGWYRPAPGKERELVAAITSSGGTTYYADSVKGRFTISRDNAKNTVYLQMNSLKPEDTAVYYCAARRWYQSRRGGFDYWGQGTQVTVSS”, the “polyreactivity (PSR sort gate)” value is on record as “high polyreactivity”.
Consider “QVQLVESGGGLVQAGGSLRLSCAASGITFYGYAMGWYRPAPGKERELVARITISGRTNYADYVKGRFTISRDNAKNTVYLQMNSLKPEDTAVYYCATLVHWSYPYYYWGQGTQVTVSS”, for which the “polyreactivity (PSR sort gate)” value is reported as “high polyreactivity”.
For “QVQLVESGGGLVQAGGSLRLSCAASGITFYGYAMGWYRQAPGKERELVAAISESGGSTYYADSVKGRFTISRDNAKNSVYLQMNRLKEEDTAVYYCASQGYSVYWYSNYWGQCTQVTVSS” the value was “low polyreactivity”; for “QVQLVESGGGLVQAGGSLRLSCAASGITFYGYAMGWYRQAPGKERELVAAISESGGSTYYADSVKGRFTISRDNAKNTVYLQMNSLKPEDTAVYYCNAESYSTWSFGHRYEYDYWGQGTQVTVSS”, “low polyreactivity”; for “QVQLVESGGGLVQAGGSLRLSCAASGITFYGYAMGWYRQAPGKERELVAVITSSGSSTYYADSVKGRFTISRDNAKNTVYLQMNSLKPEDTAVYYCNARPGRRSLRSRTYDYWGQGTQVTVSS”, “high polyreactivity”.
